Laboratory results: IntAct's records for PubMed 23001144

Biological target: tir_eco27 tir (UniProt B7UM99)
Sequence (B7UM99 whole entry): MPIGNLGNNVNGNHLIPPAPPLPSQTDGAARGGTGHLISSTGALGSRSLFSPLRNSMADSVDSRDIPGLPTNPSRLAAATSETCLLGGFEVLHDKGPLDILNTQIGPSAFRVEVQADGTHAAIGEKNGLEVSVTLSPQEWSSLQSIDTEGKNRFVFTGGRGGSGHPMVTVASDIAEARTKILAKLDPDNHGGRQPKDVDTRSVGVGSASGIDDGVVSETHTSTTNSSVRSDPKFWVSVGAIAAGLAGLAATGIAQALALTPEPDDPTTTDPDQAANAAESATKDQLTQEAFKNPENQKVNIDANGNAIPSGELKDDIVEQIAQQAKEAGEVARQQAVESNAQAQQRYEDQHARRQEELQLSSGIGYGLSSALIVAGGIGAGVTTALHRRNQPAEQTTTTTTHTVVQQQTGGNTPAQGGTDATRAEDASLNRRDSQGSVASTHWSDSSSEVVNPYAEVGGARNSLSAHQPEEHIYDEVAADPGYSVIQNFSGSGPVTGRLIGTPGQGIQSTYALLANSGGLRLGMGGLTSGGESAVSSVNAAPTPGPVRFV

Chain of Tyrosine-protein phosphatase non-receptor type 6 (Homo sapiens), P29350 C453S (P29350 whole entry C453S): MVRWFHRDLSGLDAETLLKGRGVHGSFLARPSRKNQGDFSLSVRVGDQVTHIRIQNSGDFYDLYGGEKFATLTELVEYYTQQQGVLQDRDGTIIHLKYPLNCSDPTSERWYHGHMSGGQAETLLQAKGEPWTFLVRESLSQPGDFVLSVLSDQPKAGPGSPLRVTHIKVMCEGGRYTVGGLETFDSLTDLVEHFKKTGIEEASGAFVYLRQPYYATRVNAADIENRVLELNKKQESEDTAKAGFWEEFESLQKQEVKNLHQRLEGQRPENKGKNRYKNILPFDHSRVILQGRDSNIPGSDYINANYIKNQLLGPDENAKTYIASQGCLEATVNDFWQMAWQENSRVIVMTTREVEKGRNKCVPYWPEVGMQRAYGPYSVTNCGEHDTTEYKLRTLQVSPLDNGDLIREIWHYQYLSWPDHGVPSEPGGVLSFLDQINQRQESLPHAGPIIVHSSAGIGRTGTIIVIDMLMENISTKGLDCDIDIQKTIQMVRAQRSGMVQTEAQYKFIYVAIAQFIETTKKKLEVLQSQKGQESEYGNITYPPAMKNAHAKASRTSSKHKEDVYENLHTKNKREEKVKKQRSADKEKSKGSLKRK

For “Tyrosine-protein phosphatase non-receptor type 6 (Homo sapiens), P29350 C453S”, which “effect of a mutation on the interaction” value is on record?
The value was “decreasing interaction”.
